Source: patent US20080220446A1, “Method for Detecting and/or Removing Protein and/or Peptide Comprising a Cross-Beta Structure From an Aqueous Solution Comprising a Protein” (priority 2005, published 2008)

Target: T1, Fn F4-5 (Homo sapiens, UniProt P02751)
T1 construct: amino-acids NH2—I182-V276-COOH of Fn F4-5; made in house; host or cells: Saccharomyces cerevisiae
Test: Biacore surface plasmon resonance, binding to immobilized Fn F4-5
Protocol: Binding of cross-β structure containing peptides/proteins was studied using surface plasmon resonance technology with a Biacore 2000 apparatus (Biacore AB, Uppsala, Sweden). A standardized amine coupling procedure was used to couple proteins with F domains to a CM5 chip (Biacore AB, Uppsala, Sweden). First, the dextran surface of the chips was activated by a 35 μl injection with a 1:1 mixture of 0.1 M N-hydroxysuccinimide (NHS) and 0.4 M N-ethyl-N′-(dimethylaminopropyl)carbodiimide (EDC) at a flow rate of 5 μl min.^−1. Then, the proteins were covalently coupled to the activated dextran surface. Remaining activated groups in each of the four flow channels were blocked by injection of 35 μl of 1 M ethanolamine hydrochloride pH 8.5. EDC, NHS and ethanolamine hydrochloride were obtained from Biacore. On one chip, on channels 1 to 4, buffer (reference channel), the soluble extracellular part of receptor for advanced glycation endproducts (sRAGE), tPA and K2P-tPA were immobilized. […] Binding of albumin-AGE was determined with a solution of 3.9 μg ml^−1 albumin-AGE in running buffer. albumin-AGE was filtered on a Millex-GV 0.22 μm filter unit (Millipore). […] Binding of Hb-AGE was also tested after centrifugation for 10 min. at 16,000*g alternative to filtration. tPA activation before and after filtration was assessed with a Plg-activation assay. […]

T1 sequence (P02751 182-276): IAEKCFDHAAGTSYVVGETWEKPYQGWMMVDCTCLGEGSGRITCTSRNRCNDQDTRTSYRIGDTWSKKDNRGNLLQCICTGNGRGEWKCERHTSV

B1: recombinant β2GPI: recombinant human β2-glycoprotein I made using insect cells (protein)
chain: GRTCPKPDDLPFSTVVPLKTFYEPGEEITYSCKPGYVSRGGMRKFICPLTGLWPINTLKCTPRVCPFAGILENGAVRYTTFEYPNTISFSCNTGFYLNGADSAKCTEEGKWSPELPVCAPIICPPPSIPTFATLRVYKPSAGNNSLYRDTAVFECLPQHAMFGNDTITCTTHGNWTKLPECREVKCPFPSRPDNGFVNYPAKPTLYYKDKATFGCHDGYSLDGPEEIECTKLGNWSAMPSCKASCKVPVKKATVVYQGERVKIQEKFKNGMLHGDKVSFFCKNKEKKCSYTEDAQCIDGTIEVPKCFKEHSSLAFWKTDASDVKPC
- binding to the Fn F4-5 doublet (Biacore, native Hb at 25 nM): bound
- Kd (immobilized Fn F4-5, Biacore CM5 chip, read-out: concentration of ligand that results in half maximum binding to Fn F4-5): 0.165 µM
